Results: doi:10.1101/2025.03.21.644421 (bioRxiv, 2025)

Legend:
[1] = target: T1, LetA (N-terminal 6xHis2xQH-TEV tagged LetA) (E. coli, UniProt P0AD03 1-427); experiment: cryo-EM structure
T1 sequence (looked up): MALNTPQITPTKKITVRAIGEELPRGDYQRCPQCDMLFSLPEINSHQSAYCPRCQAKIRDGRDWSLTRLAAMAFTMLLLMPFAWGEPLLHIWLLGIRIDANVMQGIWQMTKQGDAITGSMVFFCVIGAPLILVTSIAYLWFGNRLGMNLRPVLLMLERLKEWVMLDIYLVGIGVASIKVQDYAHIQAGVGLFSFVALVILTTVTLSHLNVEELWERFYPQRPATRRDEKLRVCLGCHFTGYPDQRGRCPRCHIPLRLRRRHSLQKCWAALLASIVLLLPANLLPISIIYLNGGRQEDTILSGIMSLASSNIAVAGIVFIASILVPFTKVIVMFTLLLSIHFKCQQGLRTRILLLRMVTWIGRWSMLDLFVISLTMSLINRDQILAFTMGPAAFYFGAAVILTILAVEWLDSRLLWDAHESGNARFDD

cryo-EM structure = target: the molecule itself; experiment: cryo-EM structure

B1: LetB (Lipophilic Envelope-spanning Tunnel B), untagged (natural protein, E. coli, UniProt P76272 1-877, looked up)
chain: MSQETPASTTEAQIKNKRRISPFWLLPFIALMIASWLIWDSYQDRGNTVTIDFMSADGIVPGRTPVRYQGVEVGTVQDISLSDDLRKIEVKVSIKSDMKDALREETQFWLVTPKASLAGVSGLDALVGGNYIGMMPGKGKEQDHFVALDTQPKYRLDNGDLMIHLQAPDLGSLNSGSLVYFRKIPVGKVYDYAINPNKQGVVIDVLIERRFTDLVKKGSRFWNVSGVDANVSISGAKVKLESLAALVNGAIAFDSPEESKPAEAEDTFGLYEDLAHSQRGVIIKLELPSGAGLTADSTPLMYQGLEVGQLTKLDLNPGGKVTGEMTVDPSVVTLLRENTRIELRNPKLSLSDANLSALLTGKTFELVPGDGEPRKEFVVVPGEKALLHEPDVLTLTLTAPESYGIDAGQPLILHGVQVGQVIDRKLTSKGVTFTVAIEPQHRELVKGDSKFVVNSRVDVKVGLDGVEFLGASASEWINGGIRILPGDKGEMKASYPLYANLEKALENSLSDLPTTTVSLSAETLPDVQAGSVVLYRKFEVGEVITVRPRANAFDIDLHIKPEYRNLLTSNSVFWAEGGAKVQLNGSGLTVQASPLSRALKGAISFDNLSGASASQRKGDKRILYASETAARAVGGQITLHAFDAGKLAVGMPIRYLGIDIGQIQTLDLITARNEVQAKAVLYPEYVQTFARGGTRFSVVTPQISAAGVEHLDTILQPYINVEPGRGNPRRDFELQEATITDSRYLDGLSIIVEAPEAGSLGIGTPVLFRGLEVGTVTGMTLGTLSDRVMIAMRISKRYQHLVRNNSVFWLASGYSLDFGLTGGVVKTGTFNQFIRGGIAFATPPGTPLAPKAQEGKHFLLQESEPKEWREWGTALPK
[1]
  stoichiometry N: 6 LetB per LetA
cryo-EM structure
  stoichiometry N: 6
